This is an account of results in patent US20110086026A1 (ROCHE PALO ALTO, published 2011).

Assay [1] concerns the target T1, hIL-4Rα:hFc chimeric protein (R&D Systems, UK) (human, UniProt P24394 26-232).
T1 construct: Bought; not shown: human Fc (hFc) of the bought chimera
T1 sequence (looked up): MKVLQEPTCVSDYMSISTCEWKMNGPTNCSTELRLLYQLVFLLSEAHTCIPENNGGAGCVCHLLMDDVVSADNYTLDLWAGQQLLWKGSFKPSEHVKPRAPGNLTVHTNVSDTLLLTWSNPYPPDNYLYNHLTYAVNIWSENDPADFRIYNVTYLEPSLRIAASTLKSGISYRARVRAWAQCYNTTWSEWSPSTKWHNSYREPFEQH
The assay is described as follows: ELISA, immobilized hIL-4Rα:hFc, detection with anti-human kappa-POD, OD 405. Here is the method:
(§1) Chimeric proteins hIL-13Rα2:hFc and hIL-4Rα:hFc (R&D Systems, UK) were dissolved in PBS (1 μg/ml) and allowed to adsorb to microtiter plates (NUNC Maxisorb) by incubation over night at 4° C. After washing the plates with washing buffer (WB=0.9% NaCl; 0.1% Tween® 20) unspecific binding sites were blocked by addition of 100 μl incubation buffer (IB=PBS with 1% crotein C and 0.1% Tween® 20) and incubation for 30 min at room-temperature (RT). Then serially diluted HuMab and control antibodies (100 μl/well; dilutions in IB) were added and incubated for 1 hour at RT. The plates were again washed and bound antibody was detected by incubation with peroxidase conjugated rabbit anti-human kappa (DAKO, Denmark) in a final dilution of 1:500 in IB. After incubation for 1 h at RT and a subsequent washing step, the plates were developed with ready-to-use ABTS® solution (Roche Diagnostics GmbH, DE) at RT in the dark. Absorbance was measured at 405 nm after absorbance of the highest concentration reached a sufficient OD.

The target of assay [2] is FcγRIIIa (CD16) on Natural Killer (NK) cells (UniProt P08637). The assay is described as follows: FACS on NK cells in PBMC, 20 µg/ml, with 20 µg/ml of the blocking anti-CD16 clone 3G8 as competitor.
The target of assay [3] is T2, hIL-13Rα2:hFc chimeric protein (R&D Systems, UK) (human, UniProt Q14627 27-343).
T2 construct: Bought; not shown: human Fc (hFc) of the bought chimera
T2 sequence (looked up): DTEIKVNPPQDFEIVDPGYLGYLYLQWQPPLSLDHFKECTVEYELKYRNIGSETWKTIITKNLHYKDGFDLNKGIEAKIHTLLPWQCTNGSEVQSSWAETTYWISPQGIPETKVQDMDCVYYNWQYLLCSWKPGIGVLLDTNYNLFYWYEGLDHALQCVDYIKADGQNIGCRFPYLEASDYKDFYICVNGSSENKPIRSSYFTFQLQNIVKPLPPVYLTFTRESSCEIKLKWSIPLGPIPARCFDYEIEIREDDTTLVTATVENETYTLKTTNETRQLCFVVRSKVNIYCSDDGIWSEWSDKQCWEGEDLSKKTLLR
The assay is described as follows: ELISA, immobilized hIL-13Rα2:hFc, detection with anti-human kappa-POD, OD 405. The procedure: as §1

For assay [4], the target named is T3, hIL-13Rα1:hFc chimeric protein (R&D Systems, UK) (human, UniProt P78552 22-343).
T3 construct: extracellular domain; Bought; also called chimeric hIL-13Rα1:hFc; not shown: human Fc (hFc) of the bought chimera
T3 sequence (looked up): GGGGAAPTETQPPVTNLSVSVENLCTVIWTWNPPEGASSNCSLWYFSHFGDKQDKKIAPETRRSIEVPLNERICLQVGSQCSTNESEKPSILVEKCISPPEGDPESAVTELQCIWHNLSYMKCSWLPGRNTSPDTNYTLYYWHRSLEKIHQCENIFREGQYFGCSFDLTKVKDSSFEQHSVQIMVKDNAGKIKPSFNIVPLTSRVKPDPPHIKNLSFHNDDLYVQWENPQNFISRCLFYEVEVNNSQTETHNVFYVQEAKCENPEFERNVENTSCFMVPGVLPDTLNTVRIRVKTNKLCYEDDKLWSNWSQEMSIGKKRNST
The experiment in a line: ELISA, immobilized hu IL-13Ra1:Fc, detection with anti-human kappa-POD, OD 405.

Assay [5] concerns the target T4, extracellular domain of hIL-13Rα1 cleaved from hIL-13Rα1:hFc chimeric protein (human, UniProt P78552 22-343).
T4 construct: extracellular domain; also called Cleaved hIL-13Rα1 molecules (MW 40 kDa)
T4 sequence (looked up): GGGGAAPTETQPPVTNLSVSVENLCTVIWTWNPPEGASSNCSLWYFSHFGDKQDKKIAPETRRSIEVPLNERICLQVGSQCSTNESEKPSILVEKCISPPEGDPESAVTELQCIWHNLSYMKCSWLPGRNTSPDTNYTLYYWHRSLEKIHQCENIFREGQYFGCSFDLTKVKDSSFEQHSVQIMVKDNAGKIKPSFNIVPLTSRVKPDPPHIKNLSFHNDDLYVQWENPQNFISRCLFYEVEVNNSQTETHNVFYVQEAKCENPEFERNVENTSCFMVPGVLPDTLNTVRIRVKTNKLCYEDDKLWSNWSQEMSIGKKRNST
The experiment in a line: SPR Biacore 3000, C1 chip, HuMab captured by anti-hFcγ, cleaved hIL-13Rα1 as analyte, 1:1 Langmuir model. Here is the method:
For interaction analysis, a Biacore 3000 instrument was used. Running and reaction buffer was HBS-P (10 mM HEPES, 150 mM NaCl, 0.005% polysurfactant P, pH 7.4) at 25° C. Capturing antibody molecules (anti-hFcγ) were amine-coupled at a concentration of 100 μg/ml at a flow rate of 5 μl/min for 20 minutes. HuMabs were injected at concentrations of 10 μg/ml at a flow rate of 10 μl/min for 30 seconds. Cleaved hIL-13Rα1 molecules (MW 40 kDa) were injected for 200 seconds at seven concentrations between 1.56 nM and 100 nM and washed with HBS-P for five minutes. Regeneration of the surface was accomplished by two injections of 100 mM HCl for 1 min each at a flow rate of […]. The chip, assay format and sequence of injections and kinetic data correspond to the description in the following Table 3. Kinetic data were calculated by fitting kinetic data to a 1:1 Langmuir binding model.

In assay [6] the target is T4, extracellular domain of hIL-13Rα1 …. The assay is described as follows: SPR Biacore 3000, CM5 chip, HuMab captured by anti-hFcγ, cleaved hIL-13Rα1 as analyte, bivalent analyte model (ka1). Here is the method: In these experiments, the affinity of the original IgG1 derived from hybridoma was compared with the affinities of the recombinant variant IgG1-Ala-Ala. For interaction analysis, a Biacore 3000 instrument was used. Running and reaction buffer was HBS-P (10 mM HEPES, 150 mM NaCl, 0.005% polysurfactant P, pH 7.4) at 25° C. Capturing antibody molecules (anti-hFcγ) were amine-coupled at a concentration of 20 μg/ml at a flow rate of 5 μl/min for 20 minutes. HuMabs were injected at concentrations of 10 μg/ml at a flow rate of 10 μl/min for 1 minute. Cleaved hIL-13 Rα1 molelcules (analyte) were injected for five minutes at eight concentrations between 1.56 nM and 200 nM and washed with HBS-P for five minutes. Regeneration of the surface was accomplished by two injections of 100 mM HCl for 1 min each. The chip, assay format and sequence of injections and kinetic data correspond to the description in Table 4. Kinetic data were calculated by fitting kinetic data to a bivalent analyte binding model.
(In general: SPR reads the build-up and loss of mass on a sensor chip optically.)

What is called EC50 (read off the curve) is the concentration giving half of the maximal effect. Read a high EC50 (read off the curve) as a need for much substance. As usually defined, the Kd is the free concentration of one partner at which half of the binding sites on the other are occupied at equilibrium, for simple one-to-one binding. Low readings indicate higher affinity, high ones lower affinity. Broadly, the koff is the first-order rate constant of dissociation. Low readings indicate slow dissociation, high ones fast dissociation. In general, kon refers to a measure of how fast the partners come together.

Sequence of FcγRIIIa (CD16) on Natural Killer (NK) cells (P08637 17-254 limits assumed): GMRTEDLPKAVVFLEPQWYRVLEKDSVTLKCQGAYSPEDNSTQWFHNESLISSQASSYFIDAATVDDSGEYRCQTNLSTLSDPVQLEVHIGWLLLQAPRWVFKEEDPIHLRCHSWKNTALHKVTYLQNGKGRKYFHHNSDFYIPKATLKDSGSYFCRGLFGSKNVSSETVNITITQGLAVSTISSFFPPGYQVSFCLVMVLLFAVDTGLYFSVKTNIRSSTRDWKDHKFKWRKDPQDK

B1: HuMab LC5002-005 (antibody, V domains shown)
VH: EVQVLDSGGGLVQPGGSLRLSCTASGFTFRLYTMSWVRQTPGRGLEWVSGISGSGLSTYFADSVKGRFTISRDNSKNTVYLQMNSLRAEDTAVYYCAKEGDWIYFDSWGQGTLVIVSS
VL: DIQMTQSPSSLSASVGDRVTITCRASQGISSWLAWYQQKPEKAPKSLIYAASSLQSGVPSRFSGSGSGTDFTLTISSLQPEDFATYYCQQYNSHPPTFGQGTKLEIK
notes: Only the variable domains are tied to this antibody; also called hu-MAB<h-IL-13Ralpha>LC.5002-005 (DSM ACC2711)
For the molecule B1, the binding result in assay [1] and in assay [3] was “no binding (tested: 3.3 nM)” throughout. In assay [2], this molecule came in with a Bmax (MFI) of 260 MFI. Also, the “EC50 (read off the curve)” value in assay [4] is approximately 400 pM. The same molecule gave a dissociation constant Kd in assay [5] of 220 pM. The molecule further came in with a koff in assay [5] of 0.0003 s⁻¹. Besides, the kon is 1.4e+06 M⁻¹ s⁻¹ in assay [5] and 133000 M⁻¹ s⁻¹ in assay [6].

B2: HuMab LC5002-002 (antibody, human IgG1, V domains shown)
VH: EVQLLESGGGLVQPGGSLRLSCAASGFTFNIYAMNWVRQAPGKGLEWVSVISGRGITTYYADSVKGRFTISRDNSKNTLYLQMNSLRADDTAVYYCAKGSSSWTDFDYWGQGTLVTVSS
VL: DIQMTQSPSSLSASVGDRVTITCRASQGISRWVAWYQQKPEKAPKSLIYAASSLQSGVPSRFSGSGSGTDFTLTISSLQPEDFATYYCQQYNSYPWTFGQGTKVEIK
notes: Human IgG1 kappa from a HuMab mouse hybridoma; Only the variable domains are tied to this antibody; also called hu-MAB<h-IL-13R alpha>LC.5002-002 (DSM ACC2709)
On to B2, for which, in assay [5], the Kd was determined as 620 pM, the koff worked out at 0.00065 s⁻¹ and the association rate constant (kon) came out at 1.1e+06 M⁻¹ s⁻¹.

B3: HuMab LC5002-003 (antibody, V domains shown)
VH: EVQLLESGGDLIQPGGSLRLSCAASGFTFNIYAMNWVRQAPGKGLEWVSVISGRGITTYYADSVKGRFTISRDNSKNTLYLQMDSLRAEDTAVYYCAKGSSYWTDFDYWGQGTLVTVSS
VL: DIQMTQSPSSLSASVGDRVTITCRASQGISSWLAWYQQKPEKAPKSLIYAASSLQSGVPSRFSGSGSGTDFTLTISSLQPEDFATYYCQQYNSYPWTFGQGTKVEIK
notes: Human IgG1 kappa from a HuMab mouse hybridoma; Only the variable domains are tied to this antibody; also called LC50002-003; hu-MAB<h-IL-13Ralpha>LC.5002-003 (DSM ACC2710)
For the molecule B3, in assay [1], the binding result is given as “no binding (tested: 3.3 nM)”. Besides, the binding result in assay [3] is “no binding (tested: 3.3 nM)”. The “EC50 (read off the curve)” value in assay [4] is approximately 400 pM. In assay [5], this molecule returned a Kd of 390 pM, a dissociation rate constant (koff) of 0.00051 s⁻¹ and a kon of 1.3e+06 M⁻¹ s⁻¹.

B4: HuMab LC5002-007 (antibody, human IgG1, V domains shown)
VH: QVQLVQSGAEVKKPGSSVKVSCKVSGGTFSSYAFSWVRQAPGQGLEWMGRIIPILGRTNYAQKFQGRVTITADKSTSTAYMEVSSLRSEDTAVYYCAREGETLDYFYYGMDVWGQGTTVTVSS
VL: EIVLTQSPGTLSLSPGERATLSCRASQSVSSSYLAWYQQKPGQAPRLLIYGASSRAIGIPDRFSGSGSGTDFTLTISRLEPEDFAVYYCQHYGSSLTFGGGTKVEIK
notes: Human IgG1 kappa from a HuMab mouse hybridoma; Only the variable domains are tied to this antibody; also called hu-MAB<h-IL-13R alpha>LC.5002-007 (DSM ACC2712)
In assay [5], B4 had a Kd of 4400 pM, a koff of 0.00083 s⁻¹ and a kon of 190000 M⁻¹ s⁻¹.
